Data as given in the Human Domainome abundance scans (Beltran et al. 2025).
± gives the uncertainty stated by the source.

Assay: abundance fitness (aPCA) (normalised: wild type 0, dead -1); higher = more abundant; growth selection in yeast, the domain comes from the species named
Details: Bacillus caldolyticus

| Substance | abundance fitness |
| --- | --- |
| Cold shock protein CspB I18R, P41016 | -0.908 ± 0.044 |
| Cold shock protein CspB E21R, P41016 | 0.011 ± 0.036 |

Same assay, conditions: Homo sapiens

| Substance | abundance fitness |
| --- | --- |
| Scaffold attachment factor B1 L31M, Q15424 | -0.338 ± 0.087 |
| Scaffold attachment factor B1 K54D, Q15424 | -0.329 ± 0.075 |
| Scaffold attachment factor B1 G27I, Q15424 | -0.03 ± 0.079 |
| Scaffold attachment factor B1 D33A, Q15424 | -0.303 ± 0.049 |
| Scaffold attachment factor B1 L43K, Q15424 | -0.9 ± 0.095 |
| Scaffold attachment factor B1 S55A, Q15424 | -0.207 ± 0.076 |
| Scaffold attachment factor B1 S79G, Q15424 | -0.119 ± 0.062 |
| Scaffold attachment factor B1 I77H, Q15424 | -0.163 ± 0.056 |
| Scaffold attachment factor B1 P72N, Q15424 | -0.374 ± 0.11 |
| Scaffold attachment factor B1 G52P, Q15424 | -0.916 ± 0.079 |
| Scaffold attachment factor B1 D73A, Q15424 | -0.196 ± 0.065 |
| Scaffold attachment factor B1 K63I, Q15424 | -0.394 ± 0.09 |
| Scaffold attachment factor B1 T26Q, Q15424 | -1.01 ± 0.34 |
| Scaffold attachment factor B1 D67Q, Q15424 | -0.123 ± 0.077 |
| Scaffold attachment factor B1 G52C, Q15424 | -0.931 ± 0.082 |
| Scaffold attachment factor B1 L61F, Q15424 | -0.299 ± 0.067 |
| Scaffold attachment factor B1 N71L, Q15424 | -0.299 ± 0.062 |
| Scaffold attachment factor B1 L34T, Q15424 | -0.452 ± 0.066 |
| Scaffold attachment factor B1 S79W, Q15424 | -0.409 ± 0.087 |
| Scaffold attachment factor B1 I37H, Q15424 | -0.186 ± 0.085 |
| Scaffold attachment factor B1 G27N, Q15424 | -0.187 ± 0.12 |

| Substance | abundance fitness |
| --- | --- |
| Scaffold attachment factor B1 G27Y, Q15424 | -0.088 ± 0.12 |
| Scaffold attachment factor B1 D33Y, Q15424 | -0.813 ± 0.099 |
| Scaffold attachment factor B1 I75S, Q15424 | -0.257 ± 0.056 |
| Scaffold attachment factor B1 V48L, Q15424 | -0.056 ± 0.065 |
| Scaffold attachment factor B1 I65K, Q15424 | -0.434 ± 0.061 |
| Scaffold attachment factor B1 L34N, Q15424 | -0.496 ± 0.078 |
| Scaffold attachment factor B1 V56W, Q15424 | -0.476 ± 0.052 |
| Scaffold attachment factor B1 N47T, Q15424 | -0.331 ± 0.066 |
| Scaffold attachment factor B1 K54H, Q15424 | -0.401 ± 0.11 |
| Scaffold attachment factor B1 K62C, Q15424 | -0.27 ± 0.057 |
| Scaffold attachment factor B1 R46K, Q15424 | -0.602 ± 0.11 |
| Scaffold attachment factor B1 G70W, Q15424 | -0.474 ± 0.055 |
| Scaffold attachment factor B1 E68D, Q15424 | -0.224 ± 0.073 |
| Scaffold attachment factor B1 S32F, Q15424 | -0.344 ± 0.083 |
| Scaffold attachment factor B1 I75M, Q15424 | -0.19 ± 0.065 |
| Scaffold attachment factor B1 R40M, Q15424 | -0.329 ± 0.075 |
| Scaffold attachment factor B1 I65W, Q15424 | -0.457 ± 0.051 |
| Scaffold attachment factor B1 A41F, Q15424 | -0.145 ± 0.053 |
| Scaffold attachment factor B1 A41R, Q15424 | -0.12 ± 0.051 |
| Scaffold attachment factor B1 R44G, Q15424 | -0.096 ± 0.064 |
| Scaffold attachment factor B1 I77D, Q15424 | -0.212 ± 0.071 |
